Measured values published in PMC9574934, “Targeting the Phosphatidylserine-Immune Checkpoint with a Small-Molecule Maytansinoid Conjugate” (Journal of Medicinal Chemistry, 2022).

What was measured:
[1] = Single intravenous dose pharmacokinetic study; conditions: for AUC(0-24 hr) Conjugate: intact conjugate; for AUC(0-24 hr) Conjugate / CL / Vss / AUC(0-24 hr) Drug: male ICR mice; for AUC(0-24 hr) Conjugate / CL / Vss: 5 mg/kg intravenous; for CL / Vss: n = 3; for AUC(0-24 hr) Drug: 5 mg/kg intravenous of conjugate; for loss of AUC: intact conjugate AUC relative to 40a
Experimental: Six-week-old male ICR mice, from the Biolasco Taiwan, were divided into groups of three and dosed at 5 mg/kg intravenously. Blood samples were drawn from each animal at time points of 0.003, 0.083, 0.25, 0.5, 1, 2, 4, 6, 8, and 24 h and stored on ice (0–4 °C). With centrifugation (3000 rpm for 15 min at 4 °C in a Beckman Model Allegra 6R centrifuge), plasma was separated from the blood and stored in frozen conditions (−20 °C). […] The mice were sacrificed, and the blood samples of 0.5 mL each and tumor samples were collected at 0.5, 2, 6, 24, 72, and 168 h after administration. Each time point group included 4 mice. Mouse blood samples were collected in EDTA tubes and centrifuged at 13,000 rpm for 5 min at 4°C for plasma collection. Plasma and the harvested tumor samples were stored at −80°C until use. Fifty microliters of mouse plasma or the sample of tumor homogenated in ddH2O with dilution ratio of 1:3 (w/v) by MiniBeadbeater-16 (BioSpec Products Inc., OK, USA) was mixed with 100 μL of acetonitrile containing 250 ng/mL BPR0L187. The mixture was vortexed for 30 s and then centrifuged at 15000g for 20 min. The supernatant was transferred to a clean tube, and 15 μL of the supernatant was injected onto LC/MS/MS. Plasma samples were analyzed by liquid chromatography tandem mass spectrometry (LC/MS/MS). The chromatographic system Agilent 1200 series LC system and an Agilent ZORBAX Eclipse XDB-C8 column (5 μm, 3.0 × 150 mm) interfaced to an MDS Sciex API4000 tandem mass spectrometer equipped with an ESI in the positive scanning mode at 600 °C was used. Data acquisition was collected via multiple reactions monitoring (MRM). A gradient system was employed for the separation of analyte and IS. Mobile phase A was 10 mM ammonium acetate aqueous solution containing 0.1% formic acid. Mobile phase B was acetonitrile. The gradient profile was as follows: 0.0–1.1 min, 50% B; 1.2–3.7 min, 55%B–90%B; 3.8–5.0 min, 90%B–50%B. The flow rate was 1.5 mL/min. The autosampler was programmed to inject 15 μL of the sample every 5 min.

[2] = test system: MIA PaCa-2 human xenografts; test: MIA PaCa-2 xenograft antitumor efficacy
Experimental: Cancer cells, suspending in phenol red free medium/DPBS, were mixed with Matrigel (356237, BD Biosciences, San Jose CA, USA) in a 1:1 ratio. Human pancreatic cancer MIA PaCa-2 (1 × 10^6 cells) or triple-negative breast cancer HCC1806 (1 × 10^6cells) cells were subcutaneously inoculated to left flanks of male nude mice 6 weeks old (Biolasco, Taiwan) or female nude mice 6 weeks old by using a 1 mL syringe (needle 24G × 1 in., 0.55 × 25 mm; TERUMO). Tumor dimensions were measured twice a week with an electronic caliper (FOW54-200-777, PRO-MAX, Newton, Massachusetts, USA), and the volume of the subcutaneously growing tumor in mm^3 was calculated by the following formula: volume = (length × width[2])/2. Conjugates were formulated 10% DMA/20% Cremophor EL/70% injectable solution of 5% dextrose (D5W) for treating MIA PaCa-2 and HCC1806 xenograft tumors. […] Body weight of the mice and tumor volume were measured twice weekly.

[3] = 1 mg/kg intravenously twice weekly for two weeks (Figure 4)
[4] = MIA PaCa-2 xenograft, 2 mg/kg intravenous (Figure S4)

SMILES | AUC(0-24 hr) Conjugate [1] [ng·h/mL] | CL [1] [mL/min/kg] | Vss [1] [L/kg] | AUC(0-24 hr) Drug ([1]; released payload 14) [ng·h/mL] | antitumor efficacy [2, 3] | body weight change during treatment [2, 3] | loss of AUC [1] [%] | AUC(0-24 hr) Drug ([1]; released payload 16) [ng·h/mL] | antitumor activity [2, 4] | body weight change during treatment [2, 4]
CCCCCC(=O)Nc1cccc(CN(Cc2cc(CN(Cc3ccccn3)Cc3cccc(NC(=O)CCCCC)n3)cc(OCCCCNC(=O)COCCOCCOCC(=O)NCc3ccc(CNC(=O)CCSSCCC(=O)N(C)[C@@H](C)C(=O)O[C@H]4CC(=O)N(C)c5cc(cc(OC)c5Cl)C/C(C)=C/C=C\[C@@H](OC)[C@@]5(O)C[C@H](OC(=O)N5)[C@@H](C)[C@@H]5O[C@@]45C)cc3)c2)Cc2ccccn2)n1.O=[N+]([O-])[O-].O=[N+]([O-])[O-].O=[N+]([O-])[O-].O=[N+]([O-])[O-].[Zn+2].[Zn+2] [Compound 36] | 14244 | 6.0 | 0.4 | 640 | potent antitumor efficacies | without apparent body weight loss |  |  |  | 
CCCCCC(=O)Nc1cccc(CN(Cc2cc(CN(Cc3ccccn3)Cc3cccc(NC(=O)CCCCC)n3)cc(OCCCCN(Cc3ccc(C(=O)NCCOCCOCCNC(=O)CCSSC(C)(C)CCC(=O)N(C)C(C)C(=O)OC4CC(=O)N(C)c5cc(cc(OC)c5Cl)CC(C)=CC=CC(OC)C5(O)CC(OC(=O)N5)C(C)C5OC45C)cc3)C(=O)C3(c4ccc(Cl)cc4)CCCCC3)c2)Cc2ccccn2)n1.O=[N+]([O-])[O-].O=[N+]([O-])[O-].O=[N+]([O-])[O-].O=[N+]([O-])[O-].[Zn+2].[Zn+2] (centres unmarked) [Compound 43] | 84916 | 1.0 | 0.2 |  |  |  | ~20 | 48 |  | 
COc1cc2cc(c1Cl)N(C)C(=O)C[C@H](OC(=O)[C@H](C)N(C)C(=O)CCSSCCC(=O)NCc1ccc(CNC(=O)COCCOCCOCC(=O)N(CCCCOc3cc(CN(Cc4ccccn4)Cc4ccccn4)cc(CN(Cc4ccccn4)Cc4ccccn4)c3)Cc3ccc(-c4ccccc4)cc3)cc1)[C@]1(C)O[C@H]1[C@H](C)[C@@H]1C[C@@](O)(NC(=O)O1)[C@H](OC)/C=C\C=C(/C)C2.O=[N+]([O-])[O-].O=[N+]([O-])[O-].O=[N+]([O-])[O-].O=[N+]([O-])[O-].[Zn+2].[Zn+2] [Compound 30] | 39025 | 2.5 | 0.5 | 242 |  |  |  |  |  | 
COc1cc2cc(c1Cl)N(C)C(=O)CC(OC(=O)C(C)N(C)C(=O)CCSSCCC(=O)NCCCCOc1cc(CN(Cc3ccccn3)Cc3ccccn3)cc(CN(Cc3ccccn3)Cc3ccccn3)c1)C1(C)OC1C(C)C1CC(O)(NC(=O)O1)C(OC)C=CC=C(C)C2.O=[N+]([O-])[O-].O=[N+]([O-])[O-].O=[N+]([O-])[O-].O=[N+]([O-])[O-].[Zn+2].[Zn+2] [Compound 27a, (1S,2R,3S,5S,6S,16E,18Z,20R,21S)-11-Chloro-21-hydroxy-12,20-dimethoxy-2,5,9,16-tetramethyl-8,23-dioxo-4,24-dioxa-9,22-diazatetracyclo[19.3.1.1.^10,140^3,5]hexacosa-10(26),11,13,16,18-pentaen-6-yl (2S)-2-[{3-[(3-{[4-(3,5-bis{[bis(Pyridin-2-ylmethyl)amino]methyl}phenoxy)butyl]amino}-3-oxopropyl)disulfanyl]propanoyl}(methyl)amino]propanoate·2[Zn(NO3)2]] | 7051 | 11.5 | 2.6 | 462 |  |  |  |  | exhibited antitumor activities | significant body weight loss
CCCCCC(=O)Nc1cccc(CN(Cc2cc(CN(Cc3ccccn3)Cc3cccc(NC(=O)CCCCC)n3)cc(OCCCCN(Cc3ccc(-c4ccccc4)cc3)C(=O)COCCOCCOCC(=O)NCc3ccc(CNC(=O)CCC(C)(C)SSCCC(=O)N(C)[C@@H](C)C(=O)O[C@H]4CC(=O)N(C)c5cc(cc(OC)c5Cl)C/C(C)=C/C=C\[C@@H](OC)[C@@]5(O)C[C@H](OC(=O)N5)[C@@H](C)[C@@H]5O[C@@]45C)cc3)c2)Cc2ccccn2)n1.O=[N+]([O-])[O-].O=[N+]([O-])[O-].O=[N+]([O-])[O-].O=[N+]([O-])[O-].[Zn+2].[Zn+2] [Compound 40b] | 88387 | 1.0 | 0.2 | 91 |  |  | ~20 |  |  | 
COc1cc2cc(c1Cl)N(C)C(=O)C[C@H](OC(=O)[C@H](C)N(C)C(=O)CCSSc1ccc(C(=O)NCCCCOc3cc(CN(Cc4ccccn4)Cc4ccccn4)cc(CN(Cc4ccccn4)Cc4ccccn4)c3)cc1)[C@]1(C)O[C@H]1[C@H](C)[C@@H]1C[C@@](O)(NC(=O)O1)[C@H](OC)/C=C\C=C(/C)C2.O=[N+]([O-])[O-].O=[N+]([O-])[O-].O=[N+]([O-])[O-].O=[N+]([O-])[O-].[Zn+2].[Zn+2] [Compound 27b, (1S,2R,3S,5S,6S,16E,18Z,20R,21S)-11-Chloro-21-hydroxy-12,20-dimethoxy-2,5,9,16-tetramethyl-8,23-dioxo-4,24-dioxa-9,22-diazatetracyclo[19.3.1.1.^10,140^3,5]hexacosa-10(26),11,13,16,18-pentaen-6-yl (2S)-2-[{3-[(4-{[4-(3,5-bis{[bis(Pyridin-2-ylmethyl)amino]methyl}phenoxy)butyl]carbamoyl}phenyl)disulfanyl]propanoyl}(methyl)amino]propanoate·2[Zn(NO3)2]] | 318 | 294 | 83 | 216 |  |  |  |  | exhibited antitumor activities | significant body weight loss
CCCCCC(=O)Nc1cccc(CN(Cc2cc(CN(Cc3ccccn3)Cc3cccc(NC(=O)CCCCC)n3)cc(OCCCCNC(=O)CCSSCCC(=O)N(C)[C@@H](C)C(=O)O[C@H]3CC(=O)N(C)c4cc(cc(OC)c4Cl)C/C(C)=C/C=C\[C@@H](OC)[C@@]4(O)C[C@H](OC(=O)N4)[C@@H](C)[C@@H]4O[C@@]34C)c2)Cc2ccccn2)n1.O=[N+]([O-])[O-].O=[N+]([O-])[O-].O=[N+]([O-])[O-].O=[N+]([O-])[O-].[Zn+2].[Zn+2] [Compound 33, (1S,2R,3S,5S,6S,16E,18Z,20R,21S)-11-Chloro-21-hydroxy-12,20-dimethoxy-2,5,9,16-tetramethyl-8,23-dioxo-4,24-dioxa-9,22-diazatetracyclo[19.3.1.1.^10,140^3,5]hexacosa-10(26),11,13,16,18-pentaen-6-yl (2S)-2-[{3-[(3-{[4-(3,5-bis{[{[6-(Hexanoylamino)pyridin-2-yl]methyl}(pyridin-2-ylmethyl)amino]methyl}phenoxy)butyl]amino}-3-oxopropyl)disulfanyl]propanoyl}(methyl)amino]propanoate·2[Zn(NO3)2]] | 14379 | 6.8 | 0.5 | 270 |  |  |  |  | exhibited antitumor activities | significant body weight loss
